The data set can be described thus: soluble on expression in E. coli; label from the status in PepcDB or PDB records.
Regarding “MDFSCGAASIATLLNNFYGRHYSEAEILDKMDKTQMRASFDDMQRIMPELGFEAQGYALPFEQLVQLKIPVIVYLKYRKNNHFSVLNGINGETVLLADPSLGHVSMSKSQFLSAWKTRDGEMEGKILAIVPKNTDFVRNQMFFNKNPVRQTRFTVEQIQMRQKR”, the “soluble on expression in E. coli” value is “not soluble”. In the case of “MDFYDTDELRDFMALVEKTNDIKKIALFRILAFTGIRKGELLALEWKDYRKSTLDINKAISHSPVGYEILPPKANSNRLLSLDEKTCKILDELHQTYPESTRIFESENGGMLSPSKPRKWLLEITKEKEIEPIRIHAFRHTHASLLFESGMSLKQVQYRLGHADLKTTMNIYTHITKLEHHHHHH” it was “not soluble”; in that of “MDGLFEFCQLSTGGSVAGAVKLNRQQTDMAVNWAGGLHHAKKYEASGFCYVNDIVLAILELLKYHQRVLYIDIDIHHGDGVEEAFYTTDRVMTVSFHKYGEYFPGTGDLRDIGAGKGKYYAVNFPMCDGIDDESYGQIFKPIISKVMEMYQPSAVVLQCGADSLSGDRLGCFNLTVKGHAKCVEVVKTFNLPLLMLGGGGYTIRNVARCWTYETAVALDCEIPNELPYNDYFEYFGPDFKLHISPSNMTNQNTPEYMEKIKQRLFENLRMLPHAPGVQMQAIPEDAVHEDSGDEDGEDPDKRISIRASDKRIACDEEFSDSEDEGEGGRRNVADHKKGAKKARIEEDKKETEDKKTDVKEEDKSKDNLEHHHHHH”, “soluble”. Turning to “MDGQTLHAWAKRFALELPFTEHCWPFGPQYDVFKVGGKIFMLFTEHHCRPVVNLKSDPQKSLVNQQIYPSIAPGYHMNKKHWISVYAGEDITVSLLNDLINDSWNLVVDGLPKREQLRLRPR”, the “soluble on expression in E. coli” value is “not soluble”.

On to “MDIKAQLKQIQDKGLYRELQPIQSVEKQYIYINDQSYINFTSNDYLGIGQLEYQPQNFLDFIKTYSIHLSSSRLVSGNSVVYQQLEQAISEHFNFEDALIFNSGYDANLAVFNIFKNNNVVIFSDQQNHASIIDGIKLSGLSKVIYQHLNYDDLESHLAQDTHLDVQKVIVSDSVFSTNGTKADINRLVHLKQRYNAILIIDASHSLGLNLFEYHADIDIVTSSLSKAWGAHGGIIFSSKDIKDLIINKGRSLIYSSSLPSYHLYFIQVSLQHVIEDTYRREKLNALSEYFNHQFMELFPNQPLSNTPIKNIVCDSLASAQAQYDMLFEHGIFVSYLRYPTVSQPTLRISLSYFHDTDDIDRLFNVMKQYDEGDSYV”, for which the “soluble on expression in E. coli” value was “not soluble”. As to “MDIMNEKVKKIIEFMDKNSIDAVLIAKNPNVYYISGASPLAGGYILITGESATLYVPELEYEMAKEESNIPVEKFKKMDEFYKALEGIKSLGIESSLPYGFIEELKKKANIKEFKKVDDVIRDMRIIKSEKEIKIIEKACEIADKAVMAAIEEITEGKKEREVAAKVEYLMKMNGAEKPAFDTIIASGYRSALPHGVASDKRIERGDLVVIDLGALYQHYNSDITRTIVVGSPNEKQKEIYEIVLEAQKKAVESAKPGITAKELDSIARNIIAEYGYGEYFNHSLGHGVGLEVHEWPRVSQYDETVLREGMVITIEPGIYIPKIGGVRIEDTILITKNGSKRLTKTERELI”, the “soluble on expression in E. coli” value is reported as “soluble”. In the case of “MDITNLIELETICLDLKAQTKDEALKELVEMLEAAGKLNSQSQFLADIWKREEIGNTGFDDGIAIPHAKSDAVAKPAVAVGISRNGIDYGAEDGELSDVFFMLASPDGDDHHHIEVLAQISTKIIEDGFVEKLKQAQSREEALEMLTDIQTQSNEFLPTSLEFASEPLSPWAQKLGRIKEH” it was “not soluble”; in that of “MDKIKVGLQYWIPQHALTRLVGKLASARAGSLTTAIIRWFIKQYNVNMDEALHSDPTHFKTFNEFFVRELKAGVRPIAEGEKVITHPADACVSQFGAIEYGKLIQAKGHTYSAQELLGGDAKLAEEFRDGDFATLYLSPRDYHRVHMPCDGTLRQMIYVPGDLFSVNPLTAENVPNLFARNERVVCIFDTEFGPMAQVLVGATIVGSIELVWAGTVTPPRGNTVYRWDYPANGNQAVVLKKGEEMGRFKLGSTVINLFAKQAIRFDDSMALGAPTRMGEPYAHQA”, “soluble”. Consider “MDKIYIHDMEFYGYHGVFPEENKLGQRFKVDLTVELDLKRAGESDDLEHSVNYGELFELCRKVVEDRTYKLVESIAENIATDILKQYESISRCTIKVIKPDPPIPGHYRAVAVEITRERP”, for which the “soluble on expression in E. coli” value is on record as “not soluble”. On to “MDKKQVTDLRSELLDSRFGAKSISTIAESKRFPLHEMRDDVAFQIINDELYLDGNARQNLATFCQTWDDENVHKLMDLSINKNWIDKEEYPQSAAIDLRCVNMVADLWHAPAPKNGQAVGTNTIGSSEACMLGGMAMKWRWRKRMEAAGKPTDKPNLVCGPVQICWHKFARYWDVELREIPMRPGQLFMDPKRMIEACDENTIGVVPTFGVTYTGNYEFPQPLHDALDKFQADTGIDIDMHIDAASGGFLAPFVAPDIVWDFRLPRVKSISASGHKFGLAPLGCGWVIWRDEEALPQELVFNVDYLGGQIGTFAINFSRPAGQVIAQYYEFLRLGREGYTKVQNASYQVAAYLADEIAKLGPYEFICTGRPDEGIPAVCFKLKDGEDPGYTLYDLSERLRLRGWQVPAFTLGGEATDIVVMRIMCRRGFEMDFAELLLEDYKASLKYLSDHPKLQGIAQQNSFKHT”, for which the “soluble on expression in E. coli” value is reported as “soluble”. For “MDKKVYNTYVSILKNELVVALGCTEPIAIAYAGAKVREVLEAMPDRCEINCSGNIVKNVKGVTVPNSGGMKGIDTAATLGIVGGNVKRILAVLEDITPEQIETTQKLVKEGFCSCGLIEGVENLYIIITAYAGEESATVEIRDYHSNITKIVKNGKIIFSTDDEQSEQSSGPDKSLLNVKDILEFADCVDLSDISEVISRQIECNTAISQEGLNNPWGAQVGRTLLDTFGSDVAIRAKAAAAAGSDARMSGCPMPVVINSGSGNQGMTVSLPIIEYAKEYNISDEGLYRALVAGNLISLHQKKYIGSLSAYCGAVSAACGSGVGIAYMLGASYDEICGIITDTIATIGGMVCDGAKPSCAAKIASAVDCALTAFHLSKNKRVFQPGEGLVKETVEDTIQSIGRMGREGMKATDIEILNIMLEN”, the “soluble on expression in E. coli” value is recorded as “not soluble”. In the case of “MDKTNLGELINQGKSLLDESVEGFNVGEYHKGAKDGLTVEINKAEEVFNKEDATEEEINLAKESLEGAIARFNSLLIEESTGDFNGNGKIDIGDLAMVSKNIGSTTNTSLDLNKDGSIDEYEISFINHRILNLEHHHHHH” it was “soluble”; in that of “MDLADLMEVENGDHSINQKHVQITFFSKDEEIPQIPDAVFDVPTGAECDDMNLLLNKTIEANDGAWKERRFEFLVGETFLRTSLAEFIEEYEVETETILKVECVIGIEAPKPLHDIQAPDWVSSVQIANGHIFSTTYGGDIVIVDRKGKETKLAVNSANRLLKCISIVKAPSKKNQLDGTEFVVGGENQLLTLYAIEKGALVEKLILRGHERAVECVSVNSDSTRAISGSVDTNLKIWNLDASDEATTYEKEEEEESAKKRRKKETKTKVPMVTIGGHRDKVSAVEWCPWNSGHAFSCSWDHTIVEWDLELAGEISRIKGPKSFTSIDLHPKSDLLISSCTDAIPRLYDPKNRDGSMVKQSFIGHQNGWVEAVKWNPLDTNQFVSVSTDKTAKMWDVRSSKSSLFDIHGHDDRILCATWNEGLIATGSADCTIKIFETA”, “not soluble”. In the case of “MDLFPVLKELAQKTPSKILLIVLDGVGGLPLEPGGPTELEAAKTPNLDRLAEESALGLLTPVYPGLAPGSGPGHLALFGYDPFRYVVGRGALSALGLGADFREGDVALRGNFATLDPEGKVVDRRAGRPPTEENQRVIAKLKEAIPRIEDVEVLFYTESEHRFLVILRGEGLEDKVTDTDPQKTGLPPLKAKALDEASERTARLVNLLSERIREVLKDEPRMNGALFRGASKKPSFPRMQEVYKLTPAAIASYPMYKGLASLVGMEVLPVEGEGDALEGKLKALKENWGRYDFFYFHVKKTDAMGEDGNFHGKVEKVELFDALLPEILALGPDVLAITGDHSTPALLKAHSWHPVPLLLKAPYLRADEARRFTEREAQRGSLGHLRGVELMPLLLAHAGKLLKYGA” it was “soluble”; in that of “MDLKKLLPCGKVIVFRKGEIVKHQDDPIEDVLILLEGTLKTEHVSENGKTLEIDEIKPVQIIASGFIFSSEPRFPVNVVAGENSKILSIPKEVFLDLLMKDRELLLFFLKDVSEHFRVVSEKLFFLTTKTLREKLMNFLVRHMNEKRELTLPVTLEELSRLFGCARPALSRVFQELEREGYIEKHGRRIKVLKNPFEHDRI”, “not soluble”; in that of “MDLSSLEIFRAVAHEASVTRAAQRLQRAQSNVTTRIRQLEEDLGVELFLRDGKRMSLTERGSEFLAYAEQLLALADEARQSMHPAEPGGRLRLGSMESTAASRLPALLASYHKACPRVALEVSTGTSHALFDGVRARRLDCALVAAGPGWAGELDGSGLRGEPLFREELLMILPAEHPPVHDVAEVRLRTLAGFARGCTYRQLAEDSLGTPLTVQEVGSYHAILACVAAGACVGVLPRSVLQLLGTPPLRSLPLAEVDTWLVWREGYATAAFERWRGVLGQAGD”, “not soluble”.

For “MDMESQKILFALSTPMEIRNECCLPSHSSPKMYLGTCFFDLSSSWGIDDRDDLLRTIHRMIDNGHAARLAGFYHRWFRYSPCEWRDYLAELNEQGQAYAQFVASTAECCGEGGIKAWDYVRMGFLSRMGVLNNWLSEEESLWIQSRIHLRALRYYSNWRQYFAGYTFGRQYWQSPEDDHLPLLREFLARKEYDDSGNDMFYQLFASDDAYYPTLSWQPLAYYSACPETLKDMSDL”, the “soluble on expression in E. coli” value is listed as “not soluble”. For “MDMGLREMCVGEKRTVIIPPHLGYGEAGVDGEVPGSAVLVFDIELLELVAGLPEGYMFIWNGEVSPNLFEEIDKDGNGEVLLEEFSEYIHAQVASGKGKLAPGFDAELIVKNMFTNQDRNGDGKVTAEEFKLKDQEAKQDEL”, the “soluble on expression in E. coli” value is “soluble”. For “MDMLKENVIQNNEARTESSVEPSHPDMMETVPEEQQKPISHIDDLLSETANLMAVKEQLLKEIAENEHIHSMQMRALQNLPQEAILPLQYHADPRRRHRMQKPESYKTVICQAWLESKTCAFAENCRFAHGEEELRPSLIEARQNNKYRTKLCDKYTTTGLCPYGKRCLFIHPDNGPNAYIRADKLFEVSQRHALADLRDQMEHHIMNGGRSTAGPQQFDMFARPCTPDEPAANMPLGPTPVSIRGPRYELPSKKPLETEEAGNRPPSSWPLDPSTFFALDSLNMATRPISPFESMLIGAAGNMQYSMLGKQSTPGGVSGYSSSGSTPSQDSDSSPLTAASAAADAACQANSESAQSILLKSINNPMIGNETTLPIPGLDQLAMDIAKHLELW”, the “soluble on expression in E. coli” value is recorded as “not soluble”. In the case of “MDMTYNMRNAMASSRNMEEPQYDMSTIDLTQNSMNTNYLMNGSVLTNAYNNDYIVNNRDKYTGDMISQLKIDQGIPTYSHTLPMNGTTLADTNDSLNIQGMMRTNMDTTGFDGYSHIMNYNNTQNTIQTNPITYRMEDYNNLNNDVMYINPTTGEKFSAEYVNNIPTNDSDNMLYSNNFKNNSINMNTLLNSHYNNLPYPMPIYESMNNPQMYMQHMNQKQTVNIPLQHGEKKSAARNISTVNKRRIKTKKFFPCC”, the “soluble on expression in E. coli” value is given as “not soluble”. As for “MDNEEYYKILGVAKSASQDEIKHAYRKMSKKYHPDLNHQPGAEDKYKQVQEAYETLGDPQKRAAYDQYGKAGANANNGQGGFGGFQQSGFNFNGQDFGDFSDIFSQMFGGSFNPNAPRKGRDLQYRINLTFEEAVFGKETEIKYVRQESGGNSKEHTVKVTIPAGVETGQQMRLAGQGEAGTHGGPYGDLYVEFIVGKSKDGFERQGANIYLEEPINFVQAALGDKIKVKTVHGDVELTIPAGTQTDTEFRLRGKGAPYVNSSRIGDEYVKVIVQVPKRLNEKEKKALKTYADLRGENVNPQKRRGLFG”, the “soluble on expression in E. coli” value was “not soluble”. As to “MDNHKCVLVIDKALPQGLIANTAAVLTLSLGKLHPELIGADNVNKNGEIHTGITSIPIPILASSSHKIKEIRASLKEEATLVDFSNVAQTTKNYQDYSDKLAATRPEDIEYLGIAIYGTKKIINKHTGNLGLIRLEHHHHHH”, the “soluble on expression in E. coli” value is “soluble”.

These data come from the DeepSol protein solubility set.
